This note sets out measurements from publication PMC11574045, “A cofactor-induced repressive type of transcription factor condensation can be induced by synthetic peptides to suppress tumorigenesis” (The EMBO Journal, 2024).

Sequences and labels used below:
B1: ADNP (protein, UniProt Q9H2P0 1-1102, looked up)
Activity-dependent …: MFQLPVNNLGSLRKARKTVKKILSDIGLEYCKEHIEDFKQFEPNDFYLKNTTWEDVGLWDPSLTKNQDYRTKPFCCSACPFSSKFFSAYKSHFRNVHSEDFENRILLNCPYCTFNADKKTLETHIKIFHAPNASAPSSSLSTFKDKNKNDGLKPKQADSVEQAVYYCKKCTYRDPLYEIVRKHIYREHFQHVAAPYIAKAGEKSLNGAVPLGSNAREESSIHCKRCLFMPKSYEALVQHVIEDHERIGYQVTAMIGHTNVVVPRSKPLMLIAPKPQDKKSMGLPPRIGSLASGNVRSLPSQQMVNRLSIPKPNLNSTGVNMMSSVHLQQNNYGVKSVGQGYSVGQSMRLGLGGNAPVSIPQQSQSVKQLLPSGNGRSYGLGSEQRSQAPARYSLQSANASSLSSGQLKSPSLSQSQASRVLGQSSSKPAAAATGPPPGNTSSTQKWKICTICNELFPENVYSVHFEKEHKAEKVPAVANYIMKIHNFTSKCLYCNRYLPTDTLLNHMLIHGLSCPYCRSTFNDVEKMAAHMRMVHIDEEMGPKTDSTLSFDLTLQQGSHTNIHLLVTTYNLRDAPAESVAYHAQNNPPVPPKPQPKVQEKADIPVKSSPQAAVPYKKDVGKTLCPLCFSILKGPISDALAHHLRERHQVIQTVHPVEKKLTYKCIHCLGVYTSNMTASTITLHLVHCRGVGKTQNGQDKTNAPSRLNQSPSLAPVKRTYEQMEFPLLKKRKLDDDSDSPSFFEEKPEEPVVLALDPKGHEDDSYEARKSFLTKYFNKQPYPTRREIEKLAASLWLWKSDIASHFSNKRKKCVRDCEKYKPGVLLGFNMKELNKVKHEMDFDAEWLFENHDEKDSRVNASKTADKKLNLGKEDDSSSDSFENLEEESNESGSPFDPVFEVEPKISNDNPEEHVLKVIPEDASESEEKLDQKEDGSKYETIHLTEEPTKLMHNASDSEVDQDDVVEWKDGASPSESGPGSQQVSDFEDNTCEMKPGTWSDESSQSEDARSSKPAAKKKATMQGDREQLKWKNSSYGKVEGFWSKDQSQWKNASENDERLSNPQIEWQNSTIDSEDGEQFDNMTDGVAEPMHGSLAGVKLSSQQA
B2: EDF1 (protein, UniProt O60869 2-148, looked up)
Endothelial …: AESDWDTVTVLRKKGPTAAQAKSKQAILAAQRRGEDVETSKKWAAGQNKQHSITKNTAKLDRETEELHHDRVTLEVGKVIQQGRQSKGLTQKDLATKINEKPQVIADYESGRAIPNNQVLGKIERAIGLKLRGKDIGKPIEKGPRAK
B3: EID1 (protein, UniProt Q9Y6B2 1-187, looked up)
EP300-interacting inhibitor …: MSEMAELSELYEESSDLQMDVMPGEGDLPQMEVGSGSRELSLRPSRSGAQQLEEEGPMEEEEAQPMAAPEGKRSLANGPNAGEQPGQVAGADFESEDEGEEFDDWEDDYDYPEEEQLSGAGYRVSAALEEADKMFLRTREPALDGGFQMHYEKTPFDQLAFIEELFSLMVVNRLTEELGCDEIIDRE
B4: AEBP2 (protein, UniProt Q6ZN18 2-517, looked up)
Zinc finger protein AEBP2: AAAITDMADLEELSRLSPLPPGSPGSAARGRAEPPEEEEEEEEEEEEAEAEAVAALLLNGGSGGGGGGGGGGVGGGEAETMSEPSPESASQAGEDEDEEEDDEEEEDESSSSGGGEEESSAESLVGSSGGSSSDETRSLSPGAASSSSGDGDGKEGLEEPKGPRGSQGGGGGGSSSSSVVSSGGDEGYGTGGGGSSATSGGRRGSLEMSSDGEPLSRMDSEDSISSTIMDVDSTISSGRSTPAMMNGQGSTTSSSKNIAYNCCWDQCQACFNSSPDLADHIRSIHVDGQRGGVFVCLWKGCKVYNTPSTSQSWLQRHMLTHSGDKPFKCVVGGCNASFASQGGLARHVPTHFSQQNSSKVSSQPKAKEESPSKAGMNKRRKLKNKRRRSLPRPHDFFDAQTLDAIRHRAICFNLSAHIESLGKGHSVVFHSTVIAKRKEDSGKIKLLLHWMPEDILPDVWVNESERHQLKTKVVHLSKLPKDTALLLDPNIYRTMPQKRLKRTLIRKVFNLYLSKQ

For this experiment, the system named is HEK293FT cells transfected with TF library. The experiment is described as follows: Screening of TF condensates based on fluorescent puncta. The format is cell-based. Particulars: Figure 1B numerical data; TF library screen, one value per transcriptional factor. On the procedure:
TF plasmids were automatically added to black-walled 384-well plates at 80 ng per well to reach a final concentration of 1.6 μg/ml. Polyethylenimine (PEI, Sigma) was then added to the plasmid-loaded plates at 240 ng per well (4.8 μg/ml). Subsequently, HEK293FT cells were seeded into the plate at 2000 cells per well. After 60 h, cells were cultured in medium with or without glucose for 12 h, and then fixed with 4% paraformaldehyde (PFA) at room temperature for 30 min. After three washes with PBS, fixed cells were permeabilized with 0.05% Triton X-100 for 15 min. Thereafter, cells were blocked with 5% BSA for 1 h, and then incubated overnight with anti-Flag (Sigma F3165, 1:200) and anti-GAL4 (Abbkine ABP57232, 1:200) primary antibodies at 4 °C. The cells were then gently washed with PBS, followed by being incubated with Alexa Fluor Plus 488 goat anti-mouse IgG secondary antibody (Thermo A32723, 1:400) or Alexa Fluor Plus 488 goat anti-rabbit IgG secondary antibody (Thermo A32731, 1:400) for 1 h. The plates were kept at 4 °C in the dark before being analyzed using an Opera System (Perkin Elmer). Fifty random fields per well were scanned and analyzed using the Columbus Plus Image Data Storage and Analysis System (Perkin Elmer).
Regarding B1, the “Z score of condensed fraction” value is reported as -0.6304.
Regarding B2, the “Z score of condensed fraction” value is -0.3636.
On to B3, for which the “Z score of condensed fraction” value is reported as 1.007.
On to B4, for which the “Z score of condensed fraction” value was found to be 0.1647.
